The experiment deals with MalK, ATPase subunit of the maltose transporter (E. coli, UniProt P68187 1-371). The experiment is described as follows: crystal structure.
MalK, ATPase subunit of the maltose transporter, sequence (P68187 whole entry): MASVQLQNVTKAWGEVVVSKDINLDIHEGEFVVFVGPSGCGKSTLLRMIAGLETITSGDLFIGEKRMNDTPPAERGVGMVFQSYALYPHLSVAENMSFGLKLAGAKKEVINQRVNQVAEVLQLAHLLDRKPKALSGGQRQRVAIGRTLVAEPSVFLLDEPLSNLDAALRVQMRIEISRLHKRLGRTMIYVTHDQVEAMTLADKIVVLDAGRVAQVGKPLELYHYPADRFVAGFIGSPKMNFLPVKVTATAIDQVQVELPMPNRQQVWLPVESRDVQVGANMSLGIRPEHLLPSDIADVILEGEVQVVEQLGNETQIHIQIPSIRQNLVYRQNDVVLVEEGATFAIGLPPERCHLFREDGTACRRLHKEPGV

B1: glucose-specific enzyme IIA (EIIA^Glc), full-length (natural protein, E. coli, UniProt P69783 1-169, looked up)
chain: MGLFDKLKSLVSDDKKDTGTIEIIAPLSGEIVNIEDVPDVVFAEKIVGDGIAIKPTGNKMVAPVDGTIGKIFETNHAFSIESDSGVELFVHFGIDTVELKGEGFKRIAEEGQRVKVGDTVIEFDLPLLEEKAKSTLTPVVISNMDEIKELIKLSGSVTVGETPVIRIKK
As for B1, the binding result is “binds”.
